This note sets out measurements from PMC6502868, “Architecture of Saccharomyces cerevisiae SAGA complex” (Cell Discovery, 2019).

The target of experiment [1] is T1, Spt7 (S. cerevisiae, UniProt P35177 1-1332).
T1 construct: Spt7, S. cerevisiae, second largest SAGA subunit (SPT module); source: endogenous, in the native SAGA complex purified from fermented S. cerevisiae cells
T1 sequence (looked up): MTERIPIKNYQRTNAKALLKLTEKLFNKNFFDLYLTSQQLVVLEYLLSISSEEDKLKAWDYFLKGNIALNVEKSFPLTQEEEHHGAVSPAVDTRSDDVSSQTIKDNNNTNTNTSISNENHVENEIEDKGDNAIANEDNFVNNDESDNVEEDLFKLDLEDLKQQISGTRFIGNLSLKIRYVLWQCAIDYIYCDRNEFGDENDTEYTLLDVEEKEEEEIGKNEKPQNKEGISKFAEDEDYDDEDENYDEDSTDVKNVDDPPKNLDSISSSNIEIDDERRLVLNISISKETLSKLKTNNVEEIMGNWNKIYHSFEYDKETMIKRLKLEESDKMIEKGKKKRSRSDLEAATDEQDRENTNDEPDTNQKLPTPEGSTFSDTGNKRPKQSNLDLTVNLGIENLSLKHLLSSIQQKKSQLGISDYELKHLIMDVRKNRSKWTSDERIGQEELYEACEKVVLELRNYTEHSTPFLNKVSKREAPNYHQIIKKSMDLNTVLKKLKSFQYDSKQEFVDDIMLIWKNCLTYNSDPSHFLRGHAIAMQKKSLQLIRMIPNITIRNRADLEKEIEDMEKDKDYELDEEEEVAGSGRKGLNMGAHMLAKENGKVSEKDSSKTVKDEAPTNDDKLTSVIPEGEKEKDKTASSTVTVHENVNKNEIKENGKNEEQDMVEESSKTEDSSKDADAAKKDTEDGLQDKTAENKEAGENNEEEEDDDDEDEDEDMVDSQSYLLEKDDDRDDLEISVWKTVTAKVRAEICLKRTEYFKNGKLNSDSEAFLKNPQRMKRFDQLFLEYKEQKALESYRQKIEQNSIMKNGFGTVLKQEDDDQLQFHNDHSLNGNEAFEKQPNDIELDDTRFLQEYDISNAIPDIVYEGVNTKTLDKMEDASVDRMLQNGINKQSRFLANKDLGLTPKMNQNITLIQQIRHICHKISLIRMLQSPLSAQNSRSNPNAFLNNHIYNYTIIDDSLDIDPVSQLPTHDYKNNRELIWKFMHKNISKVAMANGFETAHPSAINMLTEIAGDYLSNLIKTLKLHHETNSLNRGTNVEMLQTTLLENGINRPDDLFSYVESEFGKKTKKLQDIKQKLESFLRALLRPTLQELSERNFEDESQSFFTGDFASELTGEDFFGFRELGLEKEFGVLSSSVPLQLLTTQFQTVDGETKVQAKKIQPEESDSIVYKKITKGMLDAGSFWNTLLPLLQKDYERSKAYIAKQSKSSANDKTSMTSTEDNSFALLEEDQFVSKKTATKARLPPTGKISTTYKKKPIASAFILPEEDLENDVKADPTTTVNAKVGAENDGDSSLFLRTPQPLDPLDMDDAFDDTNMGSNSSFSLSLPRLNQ
In words: cross-linking; chemical cross-linking of proteins coupled with mass spectrometry (CXMS) on the purified native SAGA complex; 139 unique inter- and 184 unique intra-subunit cross-linking pairs. Particulars: both partners purified.

For experiment [2], the target named is T2, Tra1 (S. cerevisiae, UniProt P38811 1-3744).
T2 construct: Tra1, S. cerevisiae, largest SAGA subunit (SPT module), 3744 residues as printed; Endogenous subunit; Purification methods and any tag are in the Supplementary Materials; also called Tra1_(SAGA); lobe A; source: endogenous, in the native SAGA complex purified from fermented S. cerevisiae cells
The experiment is described as above. Particulars: both partners purified.

T2 sequence (P38811 whole entry): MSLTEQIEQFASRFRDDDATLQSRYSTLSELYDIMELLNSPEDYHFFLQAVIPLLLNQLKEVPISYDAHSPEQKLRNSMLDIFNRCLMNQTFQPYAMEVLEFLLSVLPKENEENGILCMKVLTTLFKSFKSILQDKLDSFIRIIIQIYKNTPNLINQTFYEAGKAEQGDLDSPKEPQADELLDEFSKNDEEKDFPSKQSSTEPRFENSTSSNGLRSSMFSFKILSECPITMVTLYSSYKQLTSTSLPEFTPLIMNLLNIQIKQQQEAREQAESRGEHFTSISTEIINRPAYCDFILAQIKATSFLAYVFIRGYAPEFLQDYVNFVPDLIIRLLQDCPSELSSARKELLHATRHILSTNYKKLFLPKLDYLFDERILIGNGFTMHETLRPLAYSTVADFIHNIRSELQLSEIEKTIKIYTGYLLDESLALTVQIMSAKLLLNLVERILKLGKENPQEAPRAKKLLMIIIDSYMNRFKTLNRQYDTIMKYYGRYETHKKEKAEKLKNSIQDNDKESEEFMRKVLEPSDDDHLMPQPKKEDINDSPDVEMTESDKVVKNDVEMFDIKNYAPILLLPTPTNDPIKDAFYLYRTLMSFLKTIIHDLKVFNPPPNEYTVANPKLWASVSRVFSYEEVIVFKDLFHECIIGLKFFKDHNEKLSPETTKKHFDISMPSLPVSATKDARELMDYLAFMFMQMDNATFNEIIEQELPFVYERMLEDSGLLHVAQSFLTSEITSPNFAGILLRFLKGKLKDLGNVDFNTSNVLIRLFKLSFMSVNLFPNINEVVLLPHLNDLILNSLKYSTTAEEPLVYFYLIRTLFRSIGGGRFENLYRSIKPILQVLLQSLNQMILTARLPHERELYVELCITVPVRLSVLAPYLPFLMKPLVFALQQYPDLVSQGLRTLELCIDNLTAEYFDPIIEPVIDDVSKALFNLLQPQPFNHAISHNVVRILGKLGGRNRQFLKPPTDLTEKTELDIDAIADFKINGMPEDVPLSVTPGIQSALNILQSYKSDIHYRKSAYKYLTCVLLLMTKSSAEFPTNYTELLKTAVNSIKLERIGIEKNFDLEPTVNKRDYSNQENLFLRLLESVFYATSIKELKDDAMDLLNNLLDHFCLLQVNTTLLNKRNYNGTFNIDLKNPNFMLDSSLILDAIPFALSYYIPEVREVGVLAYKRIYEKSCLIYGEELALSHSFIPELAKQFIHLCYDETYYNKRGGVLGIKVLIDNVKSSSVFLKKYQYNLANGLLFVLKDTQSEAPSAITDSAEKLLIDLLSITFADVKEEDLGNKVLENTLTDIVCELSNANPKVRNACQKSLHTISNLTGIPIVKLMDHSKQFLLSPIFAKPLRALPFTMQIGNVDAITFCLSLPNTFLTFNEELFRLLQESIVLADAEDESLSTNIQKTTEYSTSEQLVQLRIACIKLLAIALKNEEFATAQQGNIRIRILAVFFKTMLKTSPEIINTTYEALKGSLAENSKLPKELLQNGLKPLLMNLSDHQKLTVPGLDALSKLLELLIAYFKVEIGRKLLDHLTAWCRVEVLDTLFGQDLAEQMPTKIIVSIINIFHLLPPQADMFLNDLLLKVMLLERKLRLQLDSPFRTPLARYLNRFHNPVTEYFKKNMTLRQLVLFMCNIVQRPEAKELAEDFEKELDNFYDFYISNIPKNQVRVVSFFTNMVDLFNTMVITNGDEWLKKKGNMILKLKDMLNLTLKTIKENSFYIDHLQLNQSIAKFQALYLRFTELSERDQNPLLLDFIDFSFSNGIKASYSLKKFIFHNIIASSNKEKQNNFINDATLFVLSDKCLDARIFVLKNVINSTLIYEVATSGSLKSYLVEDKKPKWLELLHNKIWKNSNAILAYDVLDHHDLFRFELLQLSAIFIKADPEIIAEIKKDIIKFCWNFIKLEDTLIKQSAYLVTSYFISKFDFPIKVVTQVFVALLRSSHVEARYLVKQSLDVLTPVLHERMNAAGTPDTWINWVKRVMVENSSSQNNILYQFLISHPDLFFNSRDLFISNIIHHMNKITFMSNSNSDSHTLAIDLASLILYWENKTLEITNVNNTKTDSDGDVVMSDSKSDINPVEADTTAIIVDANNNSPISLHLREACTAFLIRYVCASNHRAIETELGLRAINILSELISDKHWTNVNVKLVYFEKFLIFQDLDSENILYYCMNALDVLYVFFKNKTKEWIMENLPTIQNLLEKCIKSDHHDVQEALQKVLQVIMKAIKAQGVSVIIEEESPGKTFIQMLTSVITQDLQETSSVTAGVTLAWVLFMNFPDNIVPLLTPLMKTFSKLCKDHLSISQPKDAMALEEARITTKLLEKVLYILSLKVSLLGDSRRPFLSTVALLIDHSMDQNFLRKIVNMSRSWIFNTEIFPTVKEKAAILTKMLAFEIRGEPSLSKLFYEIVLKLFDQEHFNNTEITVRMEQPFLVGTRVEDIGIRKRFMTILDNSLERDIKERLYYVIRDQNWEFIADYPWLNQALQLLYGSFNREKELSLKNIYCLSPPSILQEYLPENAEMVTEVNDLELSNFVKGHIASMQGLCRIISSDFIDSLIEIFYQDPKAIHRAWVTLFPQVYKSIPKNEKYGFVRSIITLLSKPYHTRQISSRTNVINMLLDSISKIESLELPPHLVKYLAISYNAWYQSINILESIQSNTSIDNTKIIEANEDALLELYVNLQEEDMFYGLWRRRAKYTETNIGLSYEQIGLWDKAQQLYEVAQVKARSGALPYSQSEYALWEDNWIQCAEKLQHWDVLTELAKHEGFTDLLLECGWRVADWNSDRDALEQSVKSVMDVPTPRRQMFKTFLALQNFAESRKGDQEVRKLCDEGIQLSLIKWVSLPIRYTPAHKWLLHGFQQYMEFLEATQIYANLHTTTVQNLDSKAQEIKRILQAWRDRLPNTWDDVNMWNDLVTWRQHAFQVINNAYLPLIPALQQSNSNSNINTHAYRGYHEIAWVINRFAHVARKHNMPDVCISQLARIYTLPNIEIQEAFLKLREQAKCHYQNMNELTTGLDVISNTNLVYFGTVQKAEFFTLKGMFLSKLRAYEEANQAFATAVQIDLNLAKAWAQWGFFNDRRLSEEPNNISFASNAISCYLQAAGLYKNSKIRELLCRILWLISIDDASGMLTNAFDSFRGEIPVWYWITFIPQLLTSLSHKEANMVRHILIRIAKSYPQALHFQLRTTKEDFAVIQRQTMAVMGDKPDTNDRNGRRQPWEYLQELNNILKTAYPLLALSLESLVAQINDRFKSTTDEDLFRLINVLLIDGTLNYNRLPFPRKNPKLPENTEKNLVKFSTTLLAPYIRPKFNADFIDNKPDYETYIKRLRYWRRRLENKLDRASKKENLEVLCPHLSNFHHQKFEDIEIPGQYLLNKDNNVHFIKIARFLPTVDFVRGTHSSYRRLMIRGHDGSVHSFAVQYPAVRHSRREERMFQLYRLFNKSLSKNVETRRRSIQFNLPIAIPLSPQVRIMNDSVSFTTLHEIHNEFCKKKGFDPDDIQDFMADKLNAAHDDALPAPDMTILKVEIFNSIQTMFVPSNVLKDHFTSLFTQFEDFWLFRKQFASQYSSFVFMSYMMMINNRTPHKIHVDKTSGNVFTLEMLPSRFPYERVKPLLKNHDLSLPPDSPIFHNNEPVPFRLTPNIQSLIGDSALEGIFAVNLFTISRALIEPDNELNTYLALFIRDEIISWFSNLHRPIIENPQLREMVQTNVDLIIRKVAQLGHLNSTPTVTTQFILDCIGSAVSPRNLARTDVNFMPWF

B1: Taf5 (natural protein, S. cerevisiae, UniProt P38129 1-798, looked up)
chain: MSQKQSTNQNQNGTHQPQPVKNQRTNNAAGANSGQQPQQQSQGQSQQQGRSNGPFSASDLNRIVLEYLNKKGYHRTEAMLRAESGRTLTPQNKQSPANTKTGKFPEQSSIPPNPGKTAKPISNPTNLSSKRDAEGGIVSSGRLEGLNAPENYIRAYSMLKNWVDSSLEIYKPELSYIMYPIFIYLFLNLVAKNPVYARRFFDRFSPDFKDFHGSEINRLFSVNSIDHIKENEVASAFQSHKYRITMSKTTLNLLLYFLNENESIGGSLIISVINQHLDPNIVESVTAREKLADGIKVLSDSENGNGKQNLEMNSVPVKLGPFPKDEEFVKEIETELKIKDDQEKQLNQQTAGDNYSGANNRTLLQEYKAMNNEKFKDNTGDDDKDKIKDKIAKDEEKKESELKVDGEKKDSNLSSPARDILPLPPKTALDLKLEIQKVKESRDAIKLDNLQLALPSVCMYTFQNTNKDMSCLDFSDDCRIAAAGFQDSYIKIWSLDGSSLNNPNIALNNNDKDEDPTCKTLVGHSGTVYSTSFSPDNKYLLSGSEDKTVRLWSMDTHTALVSYKGHNHPVWDVSFSPLGHYFATASHDQTARLWSCDHIYPLRIFAGHLNDVDCVSFHPNGCYVFTGSSDKTCRMWDVSTGDSVRLFLGHTAPVISIAVCPDGRWLSTGSEDGIINVWDIGTGKRLKQMRGHGKNAIYSLSYSKEGNVLISGGADHTVRVWDLKKATTEPSAEPDEPFIGYLGDVTASINQDIKEYGRRRTVIPTSDLVASFYTKKTPVFKVKFSRSNLALAGGAFRP
notes: Taf5, S. cerevisiae, SAGA subunit (TAF module); source: endogenous, in the native SAGA complex purified from fermented S. cerevisiae cells
Consider B1, for which the binding result in experiment [1] is listed as “binds”.

B2: Taf6 (natural protein, S. cerevisiae, UniProt P53040 1-516, looked up)
chain: MSTQQQSYTIWSPQDTVKDVAESLGLENINDDVLKALAMDVEYRILEIIEQAVKFKRHSKRDVLTTDDVSKALRVLNVEPLYGYYDGSEVNKAVSFSKVNTSGGQSVYYLDEEEVDFDRLINEPLPQVPRLPTFTTHWLAVEGVQPAIIQNPNLNDIRVSQPPFIRGAIVTALNDNSLQTPVTSTTASASVTDTGASQHLSNVKPGQNTEVKPLVKHVLSKELQIYFNKVISTLTAKSQADEAAQHMKQAALTSLRTDSGLHQLVPYFIQFIAEQITQNLSDLQLLTTILEMIYSLLSNTSIFLDPYIHSLMPSILTLLLAKKLGGSPKDDSPQEIHEFLERTNALRDFAASLLDYVLKKFPQAYKSLKPRVTRTLLKTFLDINRVFGTYYGCLKGVSVLEGESIRFFLGNLNNWARLVFNESGITLDNIEEHLNDDSNPTRTKFTKEETQILVDTVISALLVLKKDLPDLYEGKGEKVTDEDKEKLLERCGVTIGFHILKRDDAKELISAIFFGE
notes: Taf6, S. cerevisiae, SAGA subunit (TAF module), ~58 kDa as printed; source: endogenous, in the native SAGA complex purified from fermented S. cerevisiae cells
Turning to B2, the binding result in experiment [1] was “binds”.

B3: Ada2 (natural protein, S. cerevisiae, UniProt Q02336 1-434, looked up)
chain: MSNKFHCDVCSADCTNRVRVSCAICPEYDLCVPCFSQGSYTGKHRPYHDYRIIETNSYPILCPDWGADEELQLIKGAQTLGLGNWQDIADHIGSRGKEEVKEHYLKYYLESKYYPIPDITQNIHVPQDEFLEQRRHRIESFRERPLEPPRKPMASVPSCHEVQGFMPGRLEFETEFENEAEGPVKDMVFEPDDQPLDIELKFAILDIYNSRLTTRAEKKRLLFENHLMDYRKLQAIDKKRSKEAKELYNRIKPFARVMTAQDFEEFSKDILEELHCRARIQQLQEWRSNGLTTLEAGLKYERDKQARISSFEKFGASTAASLSEGNSRYRSNSAHRSNAEYSQNYSENGGRKKNMTISDIQHAPDYALLSNDEQQLCIQLKILPKPYLVLKEVMFRELLKTGGNLSKSACRELLNIDPIKANRIYDFFQSQNWM
notes: Ada2, S. cerevisiae, SAGA subunit (HAT module); source: endogenous, in the native SAGA complex purified from fermented S. cerevisiae cells
On to B3, for which the binding result in experiment [1] is listed as “binds”.

B4: Ada1 (natural protein, S. cerevisiae, UniProt Q12060 1-488, looked up)
chain: MSAIQSPAPKPLQPTYPAASPASTNAYMKPGLIGSPAVSNHTEPNNGNNETAEPQGPNQRIDLGAMIEELTSLLGKESWTKYAQIISLFILGKLSRKELSNELELVFSPSAASLEKSNTNHHHSLVRLHNQLLLGIFANSLRENPLGRNGNESSWGFGNGSNNPNNKLKRINKHNSQIEVYKKIVMSLPLNDRNRLKMITKEAGKRGFIFCSVFQARLNNIPKIPIVTNPESLKRVKSNNLKTPLEWSQDIMNGFNVPLASESHSLPDTDSFYLRMVGIAREHGLVGTVDARCVELISLALDQYLKNIIEFTIDTVRYRRKKYSDYYDLNESGLYKSVSEMAADKRDAKIKQLDDDKNEDECADEAKSINNGNNSSKDDIGDISMSSITKAGEAVNEELHENRTISLTNEDIYDSLSIFPNLVEPSGSYYALTNLGLVNDDELVDMKSNIDDLPDFLNEKPTFTPLDERNVGTRHELNWLIKGILTED
notes: Ada1, S. cerevisiae, SAGA subunit (SPT module); source: endogenous, in the native SAGA complex purified from fermented S. cerevisiae cells
In the case of B4, the binding result in experiment [2] is listed as “binds”.

B5: Ada3 (natural protein, S. cerevisiae, UniProt P32494 1-702, looked up)
chain: MPRHGRRGKLPKGEKLPKKEGGDNTPSKLLSSMLKTLDLTFERDIGMLNGKSVRSIPNKKTLLELQSQLDSLNEILGTIARGDQETIEALRKIRDSKNEKQANDEKQETSNADGQHESSTATEETNIIDKGVQSPPKPPPSNEISGTIENDVESIKQAADNMAKEEINEDKDLQVHRDQPREKRPFDSETENRATENENTQRPDNKKQKIDVDKMENDPTVKNPKSEFVVSQTLPRAAAALGLFNEEGLESTGEDFLKKKYNVASYPTNDLKDLLPGELPDMDFSHPKPTNQIQFNTFLAFVENFFKDLSDDNLKFLKMKYIIPDSLQFDKTYDPEVNPFIIPKLGPLYTDVWFKDENDKNSAYKKPSPYSNDASTILPKKSANELDDNALESGSISCGPLLSRLLSAVLKDDNDKSELQSSKIIRDGGLPRTGGEDDIQSFRNNNNDTVDMTLSQENGPSVQTPDNDIDEEASFQAKLAENKGSNGGTTSTLPQQIGWITNGINLDYPTFEERLKRELKYVGIYMNLPKDENNPNSDDPDWVTGREDDEISAELRELQGTLKQVTKKNQKRKAQLIPLVERQLAWQEYSSILEDLDKQIDQAYVKRIRVPKKRKKHHTAASNNVNTGTTSQIAQQKAANSSLKSLLDKRQRWINKIGPLFDKPEIMKRIPNESVFKDMDQEEDEDEADVFAQNTNKDVELN
notes: Ada3, S. cerevisiae, SAGA subunit (HAT module); source: endogenous, in the native SAGA complex purified from fermented S. cerevisiae cells
Turning to B5, the binding result in experiment [1] was “binds”.

B6: Spt20 (natural protein, S. cerevisiae, UniProt P50875 1-604, looked up)
chain: MSANSPTGNDPHVFGIPVNATPSNMGSPGSPVNVPPPMNPAVANVNHPVMRTNSNSNANEGTRTLTREQIQQLQQRQRLLLQQRLLEQQRKQQALQNYEAQFYQMLMTLNKRPKRLYNFVEDADSILKKYEQYLHSFEFHIYENNYKICAPANSRLQQQQKQPELTSDGLILTKNNETLKEFLEYVARGRIPDAIMEVLRDCNIQFYEGNLILQVYDHTNTVDVTPKENKPNLNSSSSPSNNNSTQDNSKIQQPSEPNSGVANTGANTANKKASFKRPRVYRTLLKPNDLTTYYDMMSYADNARFSDSIYQQFESEILTLTKRNLSLSVPLNPYEHRDMLEETAFSEPHWDSEKKSFIHEHRAESTREGTKGVVGHIEERDEFPQHSSNYEQLMLIMNERTTTITNSTFAVSLTKNAMEIASSSSNGVRGASSSTSNSASNTRNNSLANGNQVALAAAAAAAAVGSTMGNDNNQFSRLKFIEQWRINKEKRKQQALSANINPTPFNARISMTAPLTPQQQLLQRQQQALEQQQNGGAMKNANKRSGNNATSNNNNNNNNLDKPKVKRPRKNAKKSESGTPAPKKKRMTKKKQSASSTPSSTTMS
notes: Spt20, S. cerevisiae, SAGA subunit (SPT module); source: endogenous, in the native SAGA complex purified from fermented S. cerevisiae cells
In the case of B6, in experiment [2], the binding result is recorded as “binds”.

B7: Spt8 (natural protein, S. cerevisiae, UniProt P38915 1-602, looked up)
chain: MDEVDDILINNQVVDDEEDDEEMLSGLENDSKQDLEGNDDGGEDEEDDDDDDEDDDDDEDEREDDDEQEDDDGEDDAARMDKTATPTNEHQHDEQKAAAAGAGGAGDSGDAVTKIGSEDVKLSDVDGGVGSREASSSTHEASANGEVYEYYKHMLNAAQIADSYNIYPTAAIPIQTHVNALAVSRGLKYLFLGGSDGYIRKYDLLNTLEGKLSLTILQKHSLAESIQNAGILQSYWENEIPQKKSEMKLSANKTDYEPKVSPVHSLEVQSECLFILSGLQNGGITMQGVRYMEGSIAHYFKGRNGHTQIVNILRLNGQEDRFLSGSWDKRLLEWDLQTGDIVNEFKKSRSELSSLEMRPLYSSVDVSGNVNSGKENENADDDMDSLFGDEDEDEKQDAGNEPVETGDGSNGEENKEQISEESLNIVYDESVFMTSGLNGSVHIWDRRMTQSPALSLERGAGVPPWCLSACWGVDGDHVYAGRRNACVEQFDLKMPSKPIHNLKLPSISGPVSCVKAMPNNKHLLCASRDNIRLYNVEIAVDASNSTTKSSKVPFLIVPGHHGGIISNLYLDPTSRFIISTSGNRGWQGNSTDTTLIYDIDLE
notes: Spt8, S. cerevisiae, SAGA subunit (SPT module), ~66.2 kDa as printed; source: endogenous, in the native SAGA complex purified from fermented S. cerevisiae cells
As for B7, the binding result in experiment [1] is listed as “binds”.

B8: Taf9 (natural protein, S. cerevisiae, UniProt Q05027 1-157, looked up)
chain: MNGGGKNVLNKNSVGSVSEVGPDSTQEETPRDVRLLHLLLASQSIHQYEDQVPLQLMDFAHRYTQGVLKDALVYNDYAGSGNSAGSGLGVEDIRLAIAARTQYQFKPTAPKELMLQLAAERNKKALPQVMGTWGVRLPPEKYCLTAKEWDLEDPKSM
notes: Taf9, S. cerevisiae, SAGA subunit (TAF module); source: endogenous, in the native SAGA complex purified from fermented S. cerevisiae cells
Turning to B8, the binding result in experiment [2] is recorded as “binds”.
